± gives the uncertainty stated by the source.
B1: CD2-associated protein, residues 109 to 169; numbered along this chain, Q9Y5K6 (parent)
chain: KKRQCKVLFEYIPQNEDELELKVGDIIDINEEVEEGWWSGTLNNKLGLFPSNFVKELEVTD

Variants of: B1
Assay: abundance fitness (aPCA) (normalised: wild type 0, dead -1); higher = more abundant; growth selection in yeast, the domain comes from the species named
Details: Homo sapiens

Variant | abundance fitness
KKRQCKVLFEYIPQNEDELELKVGDAIDINEEVEEGWWSGTLNNKLGLFPSNFVKELEVTD [I26A] | -0.912 ± 0.27
KKRQCKVLFEYIPQNEDELTLKVGDIIDINEEVEEGWWSGTLNNKLGLFPSNFVKELEVTD [E20T] | -0.409 ± 0.24
KKRQCKVLFEYIPQNEDELELKVGDIIDINEEVEEGWWSGTLNQKLGLFPSNFVKELEVTD [N44Q] | -0.183 ± 0.24
KKRQCKVLFEYIPQNEDELELKVGDIIDINEEVEEGWWSGTLNNNLGLFPSNFVKELEVTD [K45N] | -0.183 ± 0.2
KKRQCKVLFEYIPQNEDELELKVGDIIDINEEVEEGWWSGTLNNKLGIFPSNFVKELEVTD [L48I] | -0.022 ± 0.13
KKRQCKVLFEYIPQNEDELELKVGDIIDINEEVEEGWWSGTLNNKLGHFPSNFVKELEVTD [L48H] | -0.291 ± 0.11
KKMQCKVLFEYIPQNEDELELKVGDIIDINEEVEEGWWSGTLNNKLGLFPSNFVKELEVTD [R3M] | -0.228 ± 0.15
KKRQCKVLFEYIPQNEDELELKVGDIIDINEEVAEGWWSGTLNNKLGLFPSNFVKELEVTD [E34A] | -0.167 ± 0.15
KKRQCKVLFEYIPQNEDELELKVGDIIDINEEVEERWWSGTLNNKLGLFPSNFVKELEVTD [G36R] | -0.323 ± 0.09
KKRQCKVLFEYIPQNEDELELKVGLIIDINEEVEEGWWSGTLNNKLGLFPSNFVKELEVTD [D25L] | -0.856 ± 0.32
KKRQCKVLFEYIPQNEDELELKVGEIIDINEEVEEGWWSGTLNNKLGLFPSNFVKELEVTD [D25E] | -0.066 ± 0.19
KKRQCKVLFEYIPQNEDELELKVGKIIDINEEVEEGWWSGTLNNKLGLFPSNFVKELEVTD [D25K] | -0.106 ± 0.3
KKRQCKVLFEYIPQNEDELELKVGDIIDINEEVEEGWWSGTLNNKLGLAPSNFVKELEVTD [F49A] | -0.755 ± 0.31
KKRQCKVLFEYIPQNEDELELKVGDIIDINEEVEEGWWSGTLNNKLGLDPSNFVKELEVTD [F49D] | -0.815 ± 0.4
KKRQCKVLFEYIPQNEDELELKVGDIIDINEEVEEGWWSATLNNKLGLFPSNFVKELEVTD [G40A] | -0.747 ± 0.47
KKRQCKVLFEKIPQNEDELELKVGDIIDINEEVEEGWWSGTLNNKLGLFPSNFVKELEVTD [Y11K] | -0.415 ± 0.37
KKRQCKVLFEGIPQNEDELELKVGDIIDINEEVEEGWWSGTLNNKLGLFPSNFVKELEVTD [Y11G] | -0.855 ± 0.14
KKRQCKPLFEYIPQNEDELELKVGDIIDINEEVEEGWWSGTLNNKLGLFPSNFVKELEVTD [V7P] | -1.05 ± 0.26
KKRQCKVLFEYIPQNEDELELKVGDIIDINEEVEEGWWSGTLNNKLGLFPSLFVKELEVTD [N52L] | -0.287 ± 0.096
KKRQCKVLFEYIPQNEDELELKVGDIIDINEEVEEGWWSGTLNNKLGLFPSKFVKELEVTD [N52K] | 0.048 ± 0.16
KKRQCMVLFEYIPQNEDELELKVGDIIDINEEVEEGWWSGTLNNKLGLFPSNFVKELEVTD [K6M] | 0.151 ± 0.08
KKRQCPVLFEYIPQNEDELELKVGDIIDINEEVEEGWWSGTLNNKLGLFPSNFVKELEVTD [K6P] | -0.761 ± 0.094

Variant | abundance fitness
KKRQCKVLFEYIPQNEDELELKVGDIIDINEEVEEGWWSGTWNNKLGLFPSNFVKELEVTD [L42W] | -0.945 ± 0.45
KKRQCKVLFEYIPQNEVELELKVGDIIDINEEVEEGWWSGTLNNKLGLFPSNFVKELEVTD [D17V] | 0.051 ± 0.14
KKRQCKVLFEYIPQNEKELELKVGDIIDINEEVEEGWWSGTLNNKLGLFPSNFVKELEVTD [D17K] | -0.583 ± 0.45
KARQCKVLFEYIPQNEDELELKVGDIIDINEEVEEGWWSGTLNNKLGLFPSNFVKELEVTD [K2A] | -0.197 ± 0.16
KKRQCKVLFEYIPQNEDELELKVGDIIDSNEEVEEGWWSGTLNNKLGLFPSNFVKELEVTD [I29S] | -0.737 ± 0.22
KKRQCKVLFEYIPQNEDELELKVGDIIDCNEEVEEGWWSGTLNNKLGLFPSNFVKELEVTD [I29C] | -0.57 ± 0.28
KKRQCKVLFEYIPQNEDELELKVGDIIDFNEEVEEGWWSGTLNNKLGLFPSNFVKELEVTD [I29F] | -0.274 ± 0.15
KKRQCKVLFEYIPQNEDELELKVGDIIDQNEEVEEGWWSGTLNNKLGLFPSNFVKELEVTD [I29Q] | -0.823 ± 0.27
KKRQCKVLFEYIPQNEDELELKVGDITDINEEVEEGWWSGTLNNKLGLFPSNFVKELEVTD [I27T] | -0.902 ± 0.27
KKRQCKVLFEYIPQNEDELELKVGDIIDINEEVEEGWWSGTLNNKLGLFPSNFVKELEVRD [T60R] | -0.366 ± 0.13
KKRQCKVLFEYIPQNEDELELKVGDIIDINEEVEEGWWSGTLNNKLGLFPSNFVPELEVTD [K55P] | -1.05 ± 0.31
KKRQCKVLMEYIPQNEDELELKVGDIIDINEEVEEGWWSGTLNNKLGLFPSNFVKELEVTD [F9M] | 0.244 ± 0.1
KKRQCKVLWEYIPQNEDELELKVGDIIDINEEVEEGWWSGTLNNKLGLFPSNFVKELEVTD [F9W] | -0.108 ± 0.15
KKRQCKVLFEYIPQNEDELELKVGDIIDINEEVEEGWWSGTLCNKLGLFPSNFVKELEVTD [N43C] | -0.19 ± 0.37
KKRQCKVLFEYIPQNEDELELKVGDIIDINEEVEEGWWSGTLGNKLGLFPSNFVKELEVTD [N43G] | -0.09 ± 0.13
KKRQCKVLFEYIPQNEDELELKVGDIIDINEEVEEGWWSGTLNNKLGLFPSNGVKELEVTD [F53G] | -0.48 ± 0.17
KKRQCKVLFEYIPQNEDELELKVGDIIDINEEVEEGWWSGTLNNKLGLFPSNFVKELELTD [V59L] | 0.013 ± 0.072
KKRQCKVLFEYIPQNEDESELKVGDIIDINEEVEEGWWSGTLNNKLGLFPSNFVKELEVTD [L19S] | -0.826 ± 0.45
KKRQCKVLFEYIPQNEDDLELKVGDIIDINEEVEEGWWSGTLNNKLGLFPSNFVKELEVTD [E18D] | -0.738 ± 0.49
KKRQCKVLFEYIPQNEDYLELKVGDIIDINEEVEEGWWSGTLNNKLGLFPSNFVKELEVTD [E18Y] | -0.582 ± 0.22
KKRQCKVLFEYIPQNEDELELKVGDIIDINEEVEEGFWSGTLNNKLGLFPSNFVKELEVTD [W37F] | -0.201 ± 0.18
KKRQCKVLFEYIPQNEDELELKVGDIIDIMEEVEEGWWSGTLNNKLGLFPSNFVKELEVTD [N30M] | -0.151 ± 0.18

Reference: the Human Domainome abundance scans (Beltran et al. 2025)
